From US20190153119A1

Key:
[1] = target: TF on A431 cells (human) (UniProt P13726); assay: flow; conditions: Fc fusion
[2] = target: TF on A431 cells (human) (UniProt P13726); assay: flow; conditions: Fc fusion; remark: listed apart in the source

Chain of UniProt P13726 (P13726 33-295): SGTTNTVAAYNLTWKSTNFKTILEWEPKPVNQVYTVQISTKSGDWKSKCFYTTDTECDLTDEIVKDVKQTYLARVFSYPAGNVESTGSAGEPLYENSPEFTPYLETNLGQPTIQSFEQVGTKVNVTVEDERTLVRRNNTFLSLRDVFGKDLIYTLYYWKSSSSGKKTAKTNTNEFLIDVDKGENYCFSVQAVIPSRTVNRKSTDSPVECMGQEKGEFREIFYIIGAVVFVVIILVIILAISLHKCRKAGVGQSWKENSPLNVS

Substance 2-armed ICON1 [Lot 10.1.1] has an EC50 [1] of 15 nM.
ICON1_CHO gave an EC50 [1] of 12.9 nM.
Work on ICON1_BHK yielded an EC50 [2] of 3.59 nM and an EC50 [1] of 2.5 nM.
